Experimental data reported in the supplement of paper PMC10567573.

B1: ZNF649 (parent)
chain: LTEHKRIHTGKKPHVCSLCGKAFY
B2: CD207 (parent)
chain: MTVEKEAPDAHFTVDKQNISLWPR

Variants of: B1
Assay: protein stability index of a GFP-peptide fusion (GPS, HEK-293T) (PSI 1-6); higher = more stable
Conditions: c terminus: a fixed tail appended
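Note: lentivirally expressed fusions sorted by FACS into six bins by GFP to DsRed ratio, PSI derived from sequencing read proportions per bin multiplied by bin number.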

Protein stability index of substitutions, site by site:
S17: Q 2.46 | K 2.34 | V 1.49 | Y 2.11 | I 2.48 | E 2.84 | F 2.2 | H 2.01 | L 1.72 | G 1.72 | P 2.97 | A 2.58 | T 1.82 | W 2.72 | M 2.83 | R 1.94 | C 1.96 | N 2.58
K12: G 3.6 | I 2.5 | N 3.3 | A 2.44 | T 1.79 | Y 2.32 | M 2.28 | S 1.78 | W 2.27 | E 2.75 | L 2.5 | D 3.14 | F 2.32 | P 2.31 | H 1.97 | C 2.81 | R 2.61 | Q 2.39 | V 3.42
H8: K 2.14 | L 2.29 | P 4.21 | A 2.86 | C 3.2 | I 2.17 | W 2.06 | E 3.25 | F 2.71 | V 2.18 | T 2.58 | M 2.49 | G 2.13 | Q 3.1 | D 2.67 | Y 2.89 | R 4.2
L18: V 2.37 | Q 2.9 | A 1.97 | W 1.7 | E 3.18 | G 2.82 | T 2.35 | R 3 | S 2.89 | I 2.23 | H 3.13 | M 3.36 | D 2.84 | N 5.08 | P 3.85 | K 2.66 | C 3.2 | Y 2.2
V15: P 2.71 | W 1.83 | K 2.9 | E 2.56 | N 2.05 | G 2.56 | C 2.6 | H 2.34 | I 2.69 | S 2.23 | A 1.54 | D 2.93 | T 2.46 | R 2.32 | Y 2.55 | M 2.98 | Q 2.35 | L 1.89 | F 2.42
I7: S 3.72 | N 2.85 | V 2.58 | Q 2.73 | M 2.4 | E 2.71 | K 1.98 | C 2.6 | G 2.78 | D 2.31 | H 2.16 | R 3.93 | P 2.38 | F 2.18 | W 2.5 | T 2.71 | L 3.11
G10: D 2.63 | F 3.73 | V 2.28 | M 3.35 | L 2.27 | A 2.78 | P 3.22 | E 3.6 | W 2.97 | C 3.76 | H 2.16 | T 2.83 | K 2.96 | N 1.98 | S 2.19 | Q 2.28 | Y 2.45 | I 2.49
Y24: V 2.33 | K 3.3 | L 3.01 | H 3.35 | E 2.82 | Q 3.04 | R 2.42 | G 3.35 | N 1.43 | A 2.88 | I 1.81 | P 3.45 | C 3.33 | D 3.12 | T 3.42 | M 2.69
G20: M 2.56 | P 1.91 | I 1.91 | H 1.6 | D 2.79 | T 1.55 | N 3.49 | Q 3.04 | Y 2.9 | C 2.93 | F 1.97 | S 2.35 | K 1.24 | W 2.59 | A 3.75 | L 2.06 | V 1.94 | R 2.05
C16: V 2.2 | L 2.17 | E 3.62 | P 2.56 | G 2.01 | K 2.32 | S 3.52 | I 2.18 | R 2.4 | N 2.55 | Y 2.23 | Q 1.93 | A 2.94 | F 1.48 | T 2.23 | H 2.71 | M 2.75 | D 3.15
A22: W 2.48 | V 2.85 | N 3.23 | S 2.55 | R 3.22 | H 2.46 | K 3.71 | I 2.62 | E 2.24 | F 2.16 | Q 2.26 | L 2.27 | G 2.56 | P 2.9 | C 2.55 | T 3.41 | D 2.51 | M 2.85
K21: E 2.67 | D 2.72 | W 2.15 | S 2.44 | T 2.78 | Y 1.79 | Q 3.8 | V 3.11 | C 1.39 | P 2.55 | F 1.73 | L 1.77 | H 1.91 | A 2.03 | M 1.98 | I 2.11 | G 2.38 | N 3.08
H14: W 3.52 | L 2.71 | C 2.78 | F 2.4 | G 2.22 | D 2.34 | T 2.17 | S 2.25 | R 2.2 | A 3.54 | Y 2.63 | V 1.96 | N 1.97 | P 3.18 | M 2.86 | Q 2.97
P13: H 2.29 | S 2.33 | L 2.32 | E 2.96 | G 2.48 | N 2.15 | K 2.03 | M 3.06 | D 1.8 | I 2.84 | F 2.23 | R 3.48 | V 3.06 | Q 2.26 | T 3.55 | Y 2.88
C19: S 1.92 | W 1.3 | T 2.24 | P 2.38 | D 3.3 | M 2.46 | R 3.01 | G 2.39 | Y 2.15 | H 3.06 | F 1.81 | Q 2.04 | K 2.64 | V 2.1 | A 2.65 | I 1.75 | N 2.89 | E 3.09 | L 2.24
F23: G 2.67 | K 3.87 | W 1.52 | A 2.77 | Y 2.47 | M 2.56 | T 2.32 | C 3.07 | Q 2.3 | D 3.98 | R 2.69 | E 3.69 | V 2.32 | H 4.3 | P 3.32 | S 2.97 | N 2.4 | I 2.45
K11: A 2.32 | T 2.62 | F 2.79 | W 3.42 | M 2.56 | L 2.96 | E 3.4 | R 1.76 | C 2.43 | N 2.35 | P 2.76 | V 2.88 | G 2.54 | Q 3.01 | I 2.77 | D 3.21 | Y 2.5 | S 2.43 | H 2.23
T9: P 2.85 | W 3.49 | I 1.87 | L 2.51 | E 2.98 | V 3.62 | G 2.8 | D 3.3 | S 3.36 | C 2.32 | M 2.85 | A 2.04 | H 3.04 | Y 2.3 | Q 2.31 | R 2.45 | F 2.8 | K 2.35

Variants of: B2
Assay: as above
Conditions: c terminus: a fixed tail appended

Protein stability index: each site, then its substitutions
M1: I 2.8 | H 3.27 | E 3.36 | N 3.68 | P 4.17 | D 4.23 | R 3.98 | L 3.07 | A 3.62 | G 4.16 | F 2.11 | C 3.38 | Q 3.8 | K 2.81
